Earlier results on 1 substance are cited in PMC4482139.

In one data set the target is nmMLCK2 (Homo sapiens) (UniProt Q15746).
The target of a further data set is nmMLCK1 (Homo sapiens) (UniProt Q15746).

Regarding Cortactin (from UniProt Q14247), the Kd with nmMLCK2 (Homo sapiens) is 0.25 µM; in the data set with nmMLCK1 (Homo sapiens), 1 µM.

Usually Kd stands for a measure of binding affinity in units of concentration.
